In patent US20100003258A1:

How the values were obtained:
Test in all cases: cell-based or functional assay
[1] = biological target: human FGFR3 IIIb on FDCP-1 cells (FDCP-FGFR3 IIIb #122) (human), P22607
[2] = biological target: human FGFR3 IIIc G380R on FDCP-1 cells (FGFR3 IIIc G380R #1) (human), P22607
[3] = biological target: human FGFR3 IIIc on FDCP-1 cells (FDCP-FGFR3 IIIc #109) (human), P22607
[4] = biological target: FDCP-FGFR3 IIIb and FDCP-FGFR3 IIIc cell lines

human FGFR3 IIIc G380R on FDCP-1 cells (FGFR3 IIIc G380R #1) (human), P22607, sequence (P22607 23-806 G380R): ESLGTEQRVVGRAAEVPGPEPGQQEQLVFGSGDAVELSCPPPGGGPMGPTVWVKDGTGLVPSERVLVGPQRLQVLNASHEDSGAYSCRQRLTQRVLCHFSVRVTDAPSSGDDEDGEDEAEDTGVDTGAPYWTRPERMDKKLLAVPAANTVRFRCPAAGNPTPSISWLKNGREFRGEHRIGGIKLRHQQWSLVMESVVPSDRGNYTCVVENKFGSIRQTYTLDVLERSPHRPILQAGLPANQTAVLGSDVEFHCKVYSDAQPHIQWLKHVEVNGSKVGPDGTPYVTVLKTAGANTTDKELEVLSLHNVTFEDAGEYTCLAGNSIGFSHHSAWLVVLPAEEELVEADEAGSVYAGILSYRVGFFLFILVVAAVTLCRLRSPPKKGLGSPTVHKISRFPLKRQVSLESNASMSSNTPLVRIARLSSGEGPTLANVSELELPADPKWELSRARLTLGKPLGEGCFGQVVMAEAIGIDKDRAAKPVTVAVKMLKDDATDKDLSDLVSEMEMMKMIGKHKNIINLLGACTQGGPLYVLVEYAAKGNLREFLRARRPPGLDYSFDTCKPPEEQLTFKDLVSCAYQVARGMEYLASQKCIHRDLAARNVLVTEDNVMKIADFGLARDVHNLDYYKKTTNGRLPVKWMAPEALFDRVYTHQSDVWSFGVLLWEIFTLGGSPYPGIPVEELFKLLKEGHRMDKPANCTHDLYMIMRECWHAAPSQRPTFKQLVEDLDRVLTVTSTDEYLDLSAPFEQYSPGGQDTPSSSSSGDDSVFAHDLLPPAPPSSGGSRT
human FGFR3 IIIc on FDCP-1 cells (FDCP-FGFR3 IIIc #109) (human), P22607, sequence (P22607 23-806): as the sequence (P22607 23-806 G380R) above, with R358G counted along it
human FGFR3 IIIb on FDCP-1 cells (FDCP-FGFR3 IIIb #122) (human), P22607, sequence (P22607 23-806): as the sequence (P22607 23-806 G380R) above, with R358G counted along it

Row | Binder | FDCP Proliferation IC50, FGFR3 IIIb [1] [nM] | FDCP Proliferation IC50, FGFR3 IIIc G380R [2] [nM] | FDCP Proliferation IC50, FGFR3 IIIc [3] [nM] | maximal inhibition of FGF1 induced proliferation of FDCP-FGFR3 cell lines [4] [%]
1 | anti-FGFR3 monoclonal antibody 15D8 (antibody, mouse IgG1, kappa) heavy: EIQLQQSGPELVKPGASVKVSCKASGYAFTSYNMYWVKQSHGKSLEWIGYIDPYNGGTSYNQKFKGKATLTVDKSSSTAYMHLNSLTSEDSAVYYCAREGGNYEAWFAYWGQGTLVTVSAAKTTPPSVYPLAPGSAAQTNSMVTLGCLVKGYFPEPVTVTWNSGSLSSGVHTFPAVLQSDLYTLSSSVTVPSSTWPSETVTCNVAHPASSTKVDKKIVPRDCGCKPCICTVPEVSSVFIFPPKPKDVLTITLTPKVTCVVVDISKDDPEVQFSWFVDDVEVHTAQTQPREEQFNSTFRSVSELPIMHQDWLNGKEFKCRVNSAAFPAPIEKTISKTKGRPKAPQVYTIPPPKEQMAKDKVSLTCMITDFFPEDITVEWQWNGQPAENYKNTQPIMDTDGSYFVYSKLNVQKSNWEAGNTFTCSVLHEGLHNHHTEKSLSHSPGK light: QIVLTQSPALMSASPGEKVTMTCSASSSVSYMYWYQQKPRSSPKPWIYLTSYLASGVPARFSGSGSGTSYSLTISSMEAEDAATYYCQQWSSYPLTFGAGTKLELKRADAAPTVSIFPPSSEQLTSGGASVVCFLNNFYPKDINVKWKIDGSERQNGVLNSWTDQDSKDSTYSMSSTLTLTKDEYERHNSYTCEATHKTSTSPIVKSFNRNEC | 0.14 | 3.1 | 0.28 | 
2 | anti-FGFR3 monoclonal antibody 4E7 (antibody, mouse IgG1, kappa) heavy: EIQLQQSGPELVKPGASVKVSCKASGYAFTSYNMYWVKQSHGKSLEWIGYIDPYNGGTRYNQKFKGKATLTVDKSSSTAYMHLNSLTSEDSAVYYCAREGGNYEAWFAYWGQGTLVTVSAAKTTPPSVYPLAPGSAAQTNSMVTLGCLVKGYFPEPVTVTWNSGSLSSGVHTFPAVLQSDLYTLSSSVTVPSSTWPSETVTCNVAHPASSTKVDKKIVPRDCGCKPCICTVPEVSSVFIFPPKPKDVLTITLTPKVTCVVVDISKDDPEVQFSWFVDDVEVHTAQTQPREEQFNSTFRSVSELPIMHQDWLNGKEFKCRVNSAAFPAPIEKTISKTKGRPKAPQVYTIPPPKEQMAKDKVSLTCMITDFFPEDITVEWQWNGQPAENYKNTQPIMDTDGSYFVYSKLNVQKSNWEAGNTFTCSVLHEGLHNHHTEKSLSHSPGK light: QIVLTQSPALMSASPGEKVTMTCSASSSVSYMYWYQQKPRSSPKPWIYLTSNLASGVPARFSGSGSGTSYSLTISSMEAEDAATYYCQQWSSNPLTFGAGTKLELKRADAAPTVSIFPPSSEQLTSGGASVVCFLNNFYPKDINVKWKIDGSERQNGVLNSWTDQDSKDSTYSMSSTLTLTKDEYERHNSYTCEATHKTSTSPIVKSFNRNEC | 0.9 | 3.5 | 0.62 | 
3 | anti-FGFR3 monoclonal antibody 2G4 (antibody, mouse IgG1, kappa) heavy: EIQLQQSGPELVKPGASVKVSCKASGYAFTSYNMYWVKQSHGKSLEWIGYIDPYNGGTRDNQKFKGKATLTVDKSSSTAYMHLNSLTSEDSAVYYCAREGGNYEAWFAYWGQGTLVTVSAAKTTPPSVYPLAPGSAAQTNSMVTLGCLVKGYFPEPVTVTWNSGSLSSGVHTFPAVLQSDLYTLSSSVTVPSSTWPSETVTCNVAHPASSTKVDKKIVPRDCGCKPCICTVPEVSSVFIFPPKPKDVLTITLTPKVTCVVVDISKDDPEVQFSWFVDDVEVHTAQTQPREEQFNSTFRSVSELPIMHQDWLNGKEFKCRVNSAAFPAPIEKTISKTKGRPKAPQVYTIPPPKEQMAKDKVSLTCMITDFFPEDITVEWQWNGQPAENYKNTQPIMDTDGSYFVYSKLNVQKSNWEAGNTFTCSVLHEGLHNHHTEKSLSHSPGK light: QIVLTQSPALMSASPGEKVTMTCSASSSVSYMYWYQQKPRSSPKPWIYLTSNLASGVPARFSGSGSGTSYSLTISSMEAEDAATYYCQQWSSNPLTFGAGTKLELKRADAAPTVSIFPPSSEQLTSGGASVVCFLNNFYPKDINVKWKIDGSERQNGVLNSWTDQDSKDSTYSMSSTLTLTKDEYERHNSYTCEATHKTSTSPIVKSFNRNEC | 0.63 | 11.7 | 0.5 | 
4 | anti-FGFR3 monoclonal antibody 27H2 (antibody, mouse IgG1, kappa) heavy: EIQLQQSGPELVKPGASVKVSCKASGYAFTSYNMYWVKQSHGKSLEWIGYIDPYNGGTRYNQKFKGKATMTVDKSSSTAYMHLNSLTSEDSAVYYCAREGGNYEAWFAYWGQGTLVTVSAAKTTPPSVYPLAPGSAAQTNSMVTLGCLVKGYFPEPVTVTWNSGSLSSGVHTFPAVLQSDLYTLSSSVTVPSSTWPSETVTCNVAHPASSTKVDKKIVPRDCGCKPCICTVPEVSSVFIFPPKPKDVLTITLTPKVTCVVVDISKDDPEVQFSWFVDDVEVHTAQTQPREEQFNSTFRSVSELPIMHQDWLNGKEFKCRVNSAAFPAPIEKTISKTKGRPKAPQVYTIPPPKEQMAKDKVSLTCMITDFFPEDITVEWQWNGQPAENYKNTQPIMDTDGSYFVYSKLNVQKSNWEAGNTFTCSVLHEGLHNHHTEKSLSHSPGK light: QIVLTQSPALMSASPGEKVTMTCSASSSVSYMYWYQQKPRSSPKPWIYLTSNLASGVPARFSGSGSGTSYSLTISSMEAEDAATYYCQQWSSNPLTFGAGTKLELKRADAAPTVSIFPPSSEQLTSGGASVVCFLNNFYPKDINVKWKIDGSERQNGVLNSWTDQDSKDSTYSMSSTLTLTKDEYERHNSYTCEATHKTSTSPIVKSFNRNEC | 0.56 | 8.8 | 0.59 | 
5 | anti-FGFR3 monoclonal antibody 20B4 (antibody, mouse IgG1, kappa) heavy: EIQLQQSGPELVKPGASVKVSCKASGYSLTDYNMYWVKQSHGKSLEWIGYIDPYNGGTSYNQKFKGKATLTVDKSSSTAFMHLNSLTSEDSAVYYCARSLGPDFDYWGQGTTLTVSSAKTTPPSVYPLAPGSAAQTNSMVTLGCLVKGYFPEPVTVTWNSGSLSSGVHTFPAVLQSDLYTLSSSVTVPSSTWPSETVTCNVAHPASSTKVDKKIVPRDCGCKPCICTVPEVSSVFIFPPKPKDVLTITLTPKVTCVVVDISKDDPEVQFSWFVDDVEVHTAQTQPREEQFNSTFRSVSELPIMHQDWLNGKEFKCRVNSAAFPAPIEKTISKTKGRPKAPQVYTIPPPKEQMAKDKVSLTCMITDFFPEDITVEWQWNGQPAENYKNTQPIMDTDGSYFVYSKLNVQKSNWEAGNTFTCSVLHEGLHNHHTEKSLSHSPGK light: QIVLTQSPAIMSASPGEKVTMTCSASSSVNYMHWYQQKSGTSPKRWIYDTSKLASGVPARFSGSGSGTSYSLTISSMEAEDTATYYCQQWNSNPLTFGAGTKLELKRADAAPTVSIFPPSSEQLTSGGASVVCFLNNFYPKDINVKWKIDGSERQNGVLNSWTDQDSKDSTYSMSSTLTLTKDEYERHNSYTCEATHKTSTSPIVKSFNRNEC | 1.51 |  | 102 | 40
